Molecular target: CD123 extracellular domain (human (cDNA of L-428 cells)) (UniProt P26951)
Experiment: SPR
Conditions: bispecific antibody

Sequence of CD123 extracellular domain (human (cDNA of L-428 cells)) (P26951 19-305): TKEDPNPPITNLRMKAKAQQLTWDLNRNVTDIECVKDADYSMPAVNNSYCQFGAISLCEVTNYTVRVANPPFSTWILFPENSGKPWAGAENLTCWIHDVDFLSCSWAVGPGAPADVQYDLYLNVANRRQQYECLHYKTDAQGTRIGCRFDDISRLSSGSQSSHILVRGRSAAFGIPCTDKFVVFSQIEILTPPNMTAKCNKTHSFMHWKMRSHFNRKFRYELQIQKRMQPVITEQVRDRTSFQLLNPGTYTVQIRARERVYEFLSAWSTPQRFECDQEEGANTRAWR

Kd [nM] | Substance
2.34 | 2 × SIRPα-αCD123 fusion antibody (from UniProt P78324 31-149; P78324 31-149)
2.74 | 1 × SIRPα-αCD123 fusion antibody (from UniProt P78324 31-149)

From PMC8477557
